Test results published in patent publication US20160193292A1.

Target: JNK-interacting protein 1 (JIP-1) (UniProt Q9WVI9)
Assay: IP-FCM of lysates from OT-I T cells stimulated with OVA-Tet/α-CD28 in the presence of Tat-POSH vs Tat-cont.; competitor for POSH

Sequence of JNK-interacting protein 1 (JIP-1) (Q9WVI9 whole entry): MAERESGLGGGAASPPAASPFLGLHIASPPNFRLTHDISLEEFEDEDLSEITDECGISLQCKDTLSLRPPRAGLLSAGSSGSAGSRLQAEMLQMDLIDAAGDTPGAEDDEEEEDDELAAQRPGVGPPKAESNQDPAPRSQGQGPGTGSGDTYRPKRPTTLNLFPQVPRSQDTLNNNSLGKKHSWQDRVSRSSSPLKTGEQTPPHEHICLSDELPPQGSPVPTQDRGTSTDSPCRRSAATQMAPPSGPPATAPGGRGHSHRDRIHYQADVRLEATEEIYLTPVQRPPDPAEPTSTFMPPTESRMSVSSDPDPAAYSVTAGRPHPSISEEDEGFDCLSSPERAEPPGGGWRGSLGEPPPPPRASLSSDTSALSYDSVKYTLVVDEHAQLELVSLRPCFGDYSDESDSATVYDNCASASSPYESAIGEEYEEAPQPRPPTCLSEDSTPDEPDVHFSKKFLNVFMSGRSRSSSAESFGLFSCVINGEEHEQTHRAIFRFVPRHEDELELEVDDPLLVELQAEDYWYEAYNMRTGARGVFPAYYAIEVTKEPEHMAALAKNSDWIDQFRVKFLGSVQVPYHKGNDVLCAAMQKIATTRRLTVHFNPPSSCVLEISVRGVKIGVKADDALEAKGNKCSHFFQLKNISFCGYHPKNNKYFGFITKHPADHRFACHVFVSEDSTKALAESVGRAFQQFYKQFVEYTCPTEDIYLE

Tat-POSH SH3.3 (cell-permeable peptide containing the HIV Tat protein transduction domain fused to the SH3.3 of POSH)
percent of POSH/JIP-1 complexes disrupted: 30%
